Assay results reported in patent publication US20220049016A1 (ZYMEDI, published 2022).

How the values were obtained:
KRS fragment (1-207aa) [1] = target: T1, KRS fragment (1-207aa) (human, UniProt Q15046 1-207); test: SPR, Biacore T200, antibody amine-coupled on CM5, KRS (1-207aa) as analyte, 25 C
T1 construct: range 1-207; also called purified protein of the KRS fragment (1-207aa); KRS protein

KRS fragment (1-207aa) [2] = target: T1, KRS fragment (1-207aa); test: SPR (Biacore T200), antibody immobilised on CM5, KRS 1-207 flowed at 4.8 to 1250 nM
NRP1-b1b2 = target: T2, NRP1-b1b2 (UniProt O14786 273-586, limits assumed); test: ELISA, coated antigen printed as NRP1
T2 construct: domain: b1b2; Negative control antigen
T2 sequence (looked up): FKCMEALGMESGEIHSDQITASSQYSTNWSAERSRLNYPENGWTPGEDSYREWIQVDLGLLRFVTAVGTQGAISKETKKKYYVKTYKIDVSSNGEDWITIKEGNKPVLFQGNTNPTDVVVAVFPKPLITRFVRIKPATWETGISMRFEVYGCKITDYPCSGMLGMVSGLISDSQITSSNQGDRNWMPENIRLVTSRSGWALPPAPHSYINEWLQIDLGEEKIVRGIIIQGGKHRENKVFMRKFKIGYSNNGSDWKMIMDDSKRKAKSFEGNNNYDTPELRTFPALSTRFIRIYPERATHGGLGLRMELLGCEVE

KRS epitope peptide F4 = target: T3, KRS epitope peptide F4; test: SPR, Biacore T200, antibody on the chip, peptide F4 as analyte
T3 peptide: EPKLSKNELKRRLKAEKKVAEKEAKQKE
Experimental: The SPR experiment was performed using a Biacore T200 (GE Healthcare) equipped with a Series S sensor chip CM5 (GE Healthcare) at 25° C. After the antibody was immobilized on the chip using an amine coupling kit (GE Healthcare), the antigen was diluted 4 times in PBS solution in the range of 4.8 nM-1250 nM and flowed for 60 seconds. Thereafter, PBS was flowed for 300 seconds. The obtained data was analyzed with Biacore T200 Evaluation software v2.0 (GE Healthcare).
After that, PBS was flowed for 2400 seconds. The obtained data was analyzed with Biacore T200 Evaluation software v2.0 (GE Healthcare).

T1 sequence (Q15046 1-207 limits assumed): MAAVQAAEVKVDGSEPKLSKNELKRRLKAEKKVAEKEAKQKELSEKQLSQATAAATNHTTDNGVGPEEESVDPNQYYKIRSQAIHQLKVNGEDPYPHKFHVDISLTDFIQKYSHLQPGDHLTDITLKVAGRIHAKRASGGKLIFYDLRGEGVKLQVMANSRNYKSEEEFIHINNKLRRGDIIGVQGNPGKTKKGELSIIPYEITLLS

B1: N3-1 antibody (IgG) (antibody)
chain 1: EVQLLESGGGLVQPGGSLRLSCAASGFTFSSYDMSWVRQAPGKGLEWVSAISYDNGNTYYADSVKGRFTISRDNSKNTLYLQMNSLRAEDTAVYYSARMALDFDYWGQGTLVTVSS
chain 2: QSVLTQPPSASGTPGQRVTISCTGSSSNIGSNYVTWYQQLPGTAPKLLIYDNSNRPSGVPDRFSGSKSGTSASLAISGLQSEDEADYYCASFSDELGAYVFGGGTKLTVL
With B1 the Kd (KRS fragment (1-207aa) [1]) was 0.031 µM, the koff (KRS fragment (1-207aa) [2]) was 0.0206 s⁻¹ and the kon (KRS fragment (1-207aa) [2]) was 664000 M⁻¹ s⁻¹.

B2: N3-8 antibody (IgG) (antibody)
heavy: not shown
light: QSVLTQPPSASGTPGQRVTISCTGSSSNIGSNYVTWYQQLPGTAPKLLIYDNSNRPSGVPDRFSGSKSGTSASLAISGLQSEDEADYYCSSFSDELGAYVFGGGTKLTVLRTVAAPSVFIFPPSDEQLKSGTASVVCLLNNFYPREAKVQWKVDNALQSGNSQESVTEQDSKDSTYSLSSTLTLSKADYEKHKVYACEVTHQGLSSPVTKSFNRGEC
notes: Whole IgG1; also called N3-8 IgG
B2: no binding (tested: 10 nM) (NRP1-b1b2).

B3: N3-8-4 antibody (IgG) (antibody, V domains shown)
VH: EVQLLESGGGLVQPGGSLRLSCAASGFTFSSYDMSWVRQAPGKGLEWVSAISPYSGRIYYADSVKGRFTISRDNSKNTLYLQMNSLRAEDTAVYYCARLALDFDYWGQGTLVTVSS
VL: QSVLTQPPSASGTPGQRVTISCTGSSSNIGSNYVTWYQQLPGTAPKLLIYDNSNRPSGVPDRFSGSKSGTSASLAISGLQSEDEADYYCSSFSDELGAYVFGGGTKLTVLG
notes: Whole IgG1, N3-8 derivative; also called N3-8-4 IgG
Work on B3 yielded a Kd (KRS epitope peptide F4) of 0.0101 µM, a koff (KRS epitope peptide F4) of 0.0009 s⁻¹ and a kon (KRS epitope peptide F4) of 89500 M⁻¹ s⁻¹.
